Assay results published in paper doi:10.1101/096651 (bioRxiv, 2016).

Experiments:
Experiment in all cases: SEC
[1] = biological target: Apo-COCP (colorless apoprotein of COCP, OCP-CTD without carotenoid) (Synechocystis sp. PCC 6803) (UniProt P74102)
[2] = biological target: C-terminal OCP-related Carotenoid Protein (COCP), carotenoid-bound OCP-CTD (Synechocystis sp. PCC 6803) (UniProt P74102)
SEC = biological target: the molecule itself

Apo-COCP (colorless apoprotein of COCP, OCP-CTD without carotenoid) (from UniProt P74102 1-317) (domain or fragment)
stoichiometry N [1]: 2

C-terminal OCP-related Carotenoid Protein (COCP), carotenoid-bound OCP-CTD (from UniProt P74102 1-317) (domain or fragment)
stoichiometry N [2]: 2

B1: Fluorescence Recovery Protein (FRP) (natural protein)
chain: MLQTAEAPWSQAETQSAHALFRKAYQRELDGLLATVQAQASQITQIDDLWKLHDFLSAKRHEIDGKYDDRQSVIIFVFAQLLKEGLVQAEELTFLAADKQSKIKALARL
stoichiometry N (SEC): 2
